In patent publication US7132258 (UNIVERSITY OF MASSACHUSETTS, dated 2006):

B8: 35S-labeled hRARα (in vitro translated) (receptor, human, UniProt P10276 1-462, looked up)
chain: MASNSSSCPTPGGGHLNGYPVPPYAFFFPPMLGGLSPPGALTTLQHQLPVSGYSTPSPATIETQSSSSEEIVPSPPSPPPLPRIYKPCFVCQDKSSGYHYGVSACEGCKGFFRRSIQKNMVYTCHRDKNCIINKVTRNRCQYCRLQKCFEVGMSKESVRNDRNKKKKEVPKPECSESYTLTPEVGELIEKVRKAHQETFPALCQLGKYTTNNSSEQRVSLDIDLWDKFSELSTKCIIKTVEFAKQLPGFTTLTIADQITLLKAACLDILILRICTRYTPEQDTMTFSDGLTLNRTQMHNAGFGPLTDLVFAFANQLLPLEMDDAETGLLSAICLICGDRQDLEQPDRVDMLQEPLLEALKVYVRKRRPSRPHMFPKMLMKITDLRSISAKGAERVITLKMEIPGSMPPLIQEMLENSEGLDTLSGQPGGGGRDGGGLAPPPGSCSPSLSPSSNRSSPATHSP
notes: Made in reticulocyte lysate; also called 35S-RAR

Legend:
[1] = molecular target: T1, RAC3.1 (yeast two-hybrid clone, RAC3 amino acids 401-1204) as Gal4 AD fusion (human, UniProt Q9Y6Q9 401-1204); assay: yeast two-hybrid, with or without 1 µM ligand
T1 construct: Order of the fusion (Gal4 AD at the N-terminus) follows the vector; also called Gal4 AD fusion (RAC3.1)
T1 sequence: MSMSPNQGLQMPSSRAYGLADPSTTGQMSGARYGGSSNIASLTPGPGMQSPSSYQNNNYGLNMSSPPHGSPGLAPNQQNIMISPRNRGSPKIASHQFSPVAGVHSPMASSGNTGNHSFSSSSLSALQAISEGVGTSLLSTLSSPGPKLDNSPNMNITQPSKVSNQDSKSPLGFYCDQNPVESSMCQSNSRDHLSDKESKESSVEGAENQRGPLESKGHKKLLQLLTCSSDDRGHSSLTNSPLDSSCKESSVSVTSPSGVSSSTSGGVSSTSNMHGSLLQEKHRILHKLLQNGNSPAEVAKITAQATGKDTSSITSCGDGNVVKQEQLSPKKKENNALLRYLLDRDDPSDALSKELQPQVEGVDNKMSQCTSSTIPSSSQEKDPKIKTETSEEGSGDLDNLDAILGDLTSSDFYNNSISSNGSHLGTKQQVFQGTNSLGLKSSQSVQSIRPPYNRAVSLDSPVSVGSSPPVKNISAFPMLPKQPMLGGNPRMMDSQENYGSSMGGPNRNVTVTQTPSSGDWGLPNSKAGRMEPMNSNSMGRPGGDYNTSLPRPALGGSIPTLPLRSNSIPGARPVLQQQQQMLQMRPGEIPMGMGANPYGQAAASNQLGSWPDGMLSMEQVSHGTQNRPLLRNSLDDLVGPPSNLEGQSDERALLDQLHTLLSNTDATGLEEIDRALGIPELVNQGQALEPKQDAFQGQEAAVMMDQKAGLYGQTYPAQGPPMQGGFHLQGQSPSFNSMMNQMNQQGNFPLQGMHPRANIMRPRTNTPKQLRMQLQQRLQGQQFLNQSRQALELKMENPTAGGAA

[2] = molecular target: T2, VP16 AD-full-length hRARα fusion (human, UniProt P10276 1-462); assay: mammalian two-hybrid, luciferase reporter, with or without 1 µM atRA
T2 construct: mature; also called VP16-RAR
T2 sequence: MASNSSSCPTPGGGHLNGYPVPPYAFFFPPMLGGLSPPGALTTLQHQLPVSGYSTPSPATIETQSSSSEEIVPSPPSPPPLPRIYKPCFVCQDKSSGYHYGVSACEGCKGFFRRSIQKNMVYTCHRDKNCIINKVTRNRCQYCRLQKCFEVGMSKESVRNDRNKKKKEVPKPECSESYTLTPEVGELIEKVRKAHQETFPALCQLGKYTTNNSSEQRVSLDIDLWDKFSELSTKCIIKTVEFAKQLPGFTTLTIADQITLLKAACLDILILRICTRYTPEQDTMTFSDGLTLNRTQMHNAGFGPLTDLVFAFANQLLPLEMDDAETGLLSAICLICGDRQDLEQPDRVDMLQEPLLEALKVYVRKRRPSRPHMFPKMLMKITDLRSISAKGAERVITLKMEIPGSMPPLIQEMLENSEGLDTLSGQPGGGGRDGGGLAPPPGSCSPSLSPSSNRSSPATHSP

[3] = molecular target: T1, RAC3.1 (yeast two-hybrid clone, RAC3 …); assay: yeast two-hybrid screen for RAR-interacting proteins, Gal4 DBD-full-length hRARα as bait, HIS3 and LacZ reporters
[4] = molecular target: T1, RAC3.1 (yeast two-hybrid clone, RAC3 …); assay: yeast two-hybrid, β-galactosidase ONPG assay, 1 µM ligand
[5] = molecular target: B8; assay: far-Western, GST-RAC3-RID on the filter, 35S-labeled receptor, 1 µM all-trans retinoic acid
[6] = molecular target: T1, RAC3.1 (yeast two-hybrid clone, RAC3 …); assay: yeast two-hybrid, β-galactosidase liquid ONPG assay
[7] = molecular target: T3, full-length RAC3 (in vitro translated, 35S-labeled or unlabeled) (human, UniProt Q9Y6Q9 2-1424); assay: trimeric far-Western: unlabeled full-length RAC3 held on CBP fragments C and D, then 35S-labeled RAR, with ligand
T3 construct: Made in reticulocyte lysate; also called 35S-RAC3
T3 sequence (Q9Y6Q9 other isoform, or with tags, fused parts or gaps limits assumed): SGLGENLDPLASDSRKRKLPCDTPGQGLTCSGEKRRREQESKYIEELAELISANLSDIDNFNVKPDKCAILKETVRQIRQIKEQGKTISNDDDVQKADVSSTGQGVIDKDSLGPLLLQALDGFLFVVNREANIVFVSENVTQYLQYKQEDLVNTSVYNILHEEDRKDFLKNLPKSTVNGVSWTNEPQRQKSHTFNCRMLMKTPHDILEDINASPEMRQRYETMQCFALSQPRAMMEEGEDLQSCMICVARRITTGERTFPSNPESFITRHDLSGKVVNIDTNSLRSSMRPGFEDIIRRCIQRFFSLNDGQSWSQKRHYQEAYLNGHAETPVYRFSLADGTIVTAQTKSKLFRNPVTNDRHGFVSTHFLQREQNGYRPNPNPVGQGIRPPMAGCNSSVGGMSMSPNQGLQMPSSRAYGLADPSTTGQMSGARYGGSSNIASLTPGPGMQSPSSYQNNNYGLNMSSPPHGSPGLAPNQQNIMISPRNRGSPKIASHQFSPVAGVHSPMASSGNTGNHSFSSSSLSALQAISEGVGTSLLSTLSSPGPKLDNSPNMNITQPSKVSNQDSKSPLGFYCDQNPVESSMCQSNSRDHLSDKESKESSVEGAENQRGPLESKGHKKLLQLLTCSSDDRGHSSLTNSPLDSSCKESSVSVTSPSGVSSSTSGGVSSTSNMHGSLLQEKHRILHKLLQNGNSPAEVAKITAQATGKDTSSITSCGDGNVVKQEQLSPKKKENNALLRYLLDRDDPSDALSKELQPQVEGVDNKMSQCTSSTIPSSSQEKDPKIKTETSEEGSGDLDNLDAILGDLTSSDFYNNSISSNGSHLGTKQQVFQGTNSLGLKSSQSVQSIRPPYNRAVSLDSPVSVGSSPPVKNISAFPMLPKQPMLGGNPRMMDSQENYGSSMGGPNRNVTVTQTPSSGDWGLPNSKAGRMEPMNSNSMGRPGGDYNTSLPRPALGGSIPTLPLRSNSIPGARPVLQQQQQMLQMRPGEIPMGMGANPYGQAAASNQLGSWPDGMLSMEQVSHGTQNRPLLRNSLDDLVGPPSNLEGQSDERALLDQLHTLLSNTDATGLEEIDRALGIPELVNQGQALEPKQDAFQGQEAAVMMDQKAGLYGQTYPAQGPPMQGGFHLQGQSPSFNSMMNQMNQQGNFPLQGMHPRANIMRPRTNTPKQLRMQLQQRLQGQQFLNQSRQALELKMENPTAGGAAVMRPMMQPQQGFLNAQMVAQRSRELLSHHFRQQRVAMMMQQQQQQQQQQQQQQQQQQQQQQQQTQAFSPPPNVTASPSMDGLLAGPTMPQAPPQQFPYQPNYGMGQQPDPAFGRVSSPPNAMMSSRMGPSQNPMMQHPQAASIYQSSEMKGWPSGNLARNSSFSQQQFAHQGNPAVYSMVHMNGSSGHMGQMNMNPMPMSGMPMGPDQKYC

B1: VDR364* (LBD of hVDR truncated at amino acid 364) as Gal4 DBD fusion (receptor, UniProt P04386 1-147, looked up)
chain: MKLLSSIEQACDICRLKKLKCSKEKPKCAKCLKNNWECRYSPKTKRSPLTRAHLTEVESRLERLEQLFLLIFPREDLDMILKMDSLQDIKALLTGLFVQDNVNKDAVTDRLASVETDMPLTLRQHRISATSSSEESSNKGQRQLTVSMKEFILTDEEVQRKREMILKRKEEEALKDSLRPKLSEEQQRIIAILLDAHHKTYDPTYSDFCQFRPPVRVNDGGGSHPSRPNSRHTPSFSGDSSSSCSDHCITSSDMMDSSSFSNLDLSEEDSDDPSVTLELSQLSMLPHLADLVSYSIQKVIGFAKMIPGFRDLTSEDQIVLLKSSAIEVIMLRSNESFTMDDMSWTCGNQDYKYRVSDVTKAGHSLELIEPLIKFQVGLKKLNLHEEEHVLLMAICIVSPDRPGVQDAALIEAIQDRLSNTLQ
notes: domain: Gal4 DBD;domain: LBD of hVDR truncated at amino acid 364
- binding result [1]: no binding

B2: RAC3 amino acids 401-695 as GAL4 DBD fusion (pCMX-Gal) (other)
chain: MKLLSSIEQACDICRLKKLKCSKEKPKCAKCLKNNWECRYSPKTKRSPLTRAHLTEVESRLERLEQLFLLIFPREDLDMILKMDSLQDIKALLTGLFVQDNVNKDAVTDRLASVETDMPLTLRQHRISATSSSEESSNKGQRQLTVSMSMSPNQGLQMPSSRAYGLADPSTTGQMSGARYGGSSNIASLTPGPGMQSPSSYQNNNYGLNMSSPPHGSPGLAPNQQNIMISPRNRGSPKIASHQFSPVAGVHSPMASSGNTGNHSFSSSSLSALQAISEGVGTSLLSTLSSPGPKLDNSPNMNITQPSKVSNQDSKSPLGFYCDQNPVESSMCQSNSRDHLSDKESKESSVEGAENQRGPLESKGHKKLLQLLTCSSDDRGHSSLTNSPLDSSCKESSVSVTSPSGVSSSTSGGVSSTSNMHGSLLQEKHRILHKLLQNGNSP
notes: domain: GAL4 DBD
- binding result [2]: no binding

B3: Gal4 DBD fusion of full-length human RARα (receptor, UniProt P04386 1-147, looked up)
chain: MKLLSSIEQACDICRLKKLKCSKEKPKCAKCLKNNWECRYSPKTKRSPLTRAHLTEVESRLERLEQLFLLIFPREDLDMILKMDSLQDIKALLTGLFVQDNVNKDAVTDRLASVETDMPLTLRQHRISATSSSEESSNKGQRQLTVSMASNSSSCPTPGGGHLNGYPVPPYAFFFPPMLGGLSPPGALTTLQHQLPVSGYSTPSPATIETQSSSSEEIVPSPPSPPPLPRIYKPCFVCQDKSSGYHYGVSACEGCKGFFRRSIQKNMVYTCHRDKNCIINKVTRNRCQYCRLQKCFEVGMSKESVRNDRNKKKKEVPKPECSESYTLTPEVGELIEKVRKAHQETFPALCQLGKYTTNNSSEQRVSLDIDLWDKFSELSTKCIIKTVEFAKQLPGFTTLTIADQITLLKAACLDILILRICTRYTPEQDTMTFSDGLTLNRTQMHNAGFGPLTDLVFAFANQLLPLEMDDAETGLLSAICLICGDRQDLEQPDRVDMLQEPLLEALKVYVRKRRPSRPHMFPKMLMKITDLRSISAKGAERVITLKMEIPGSMPPLIQEMLENSEGLDTLSGQPGGGGRDGGGLAPPPGSCSPSLSPSSNRSSPATHSP
notes: domain: Gal4 DBD;mature; also called full-length hRARα; pGBT-hRARα
- binding result [3]: binds

B4: RAC3 amino acids 401-624 as GAL4 DBD fusion (pCMX-Gal) (other)
chain: MKLLSSIEQACDICRLKKLKCSKEKPKCAKCLKNNWECRYSPKTKRSPLTRAHLTEVESRLERLEQLFLLIFPREDLDMILKMDSLQDIKALLTGLFVQDNVNKDAVTDRLASVETDMPLTLRQHRISATSSSEESSNKGQRQLTVSMSMSPNQGLQMPSSRAYGLADPSTTGQMSGARYGGSSNIASLTPGPGMQSPSSYQNNNYGLNMSSPPHGSPGLAPNQQNIMISPRNRGSPKIASHQFSPVAGVHSPMASSGNTGNHSFSSSSLSALQAISEGVGTSLLSTLSSPGPKLDNSPNMNITQPSKVSNQDSKSPLGFYCDQNPVESSMCQSNSRDHLSDKESKESSVEGAENQRGPLESKGHKKLLQL
notes: domain: GAL4 DBD
- binding result [2]: no binding

B5: Gal4 DBD fusion of full-length hRXRα (receptor, UniProt P04386 1-147, looked up)
chain: MKLLSSIEQACDICRLKKLKCSKEKPKCAKCLKNNWECRYSPKTKRSPLTRAHLTEVESRLERLEQLFLLIFPREDLDMILKMDSLQDIKALLTGLFVQDNVNKDAVTDRLASVETDMPLTLRQHRISATSSSEESSNKGQRQLTVSMDTKHFLPLDFSTQVNSSLTSPTGRGSMAAPSLHPSLGPGIGSPGQLHSPISTLSSPINGMGPPFSVISSPMGPHSMSVPTTPTLGFSTGSPQLSSPMNPVSSSEDIKPPLGLNGVLKVPAHPSGNMASFTKHICAICGDRSSGKHYGVYSCEGCKGFFKRTVRKDLTYTCRDNKDCLIDKRQRNRCQYCRYQKCLAMGMKREAVQEERQRGKDRNENEVESTSSANEDMPVERILEAELAVEPKTETYVEANMGLNPSSPNDPVTNICQAADKQLFTLVEWAKRIPHFSELPLDDQVILLRAGWNELLIASFSHRSIAVKDGILLATGLHVHRNSAHSAGVGAIFDRVLTELVSKMRDMQMDKTELGCLRAIVLFNPDSKGLSNPAEVEALREKVYASLEAYCKHKYPEQPGRFAKLLLRLPALRSIGLKCLEHLFFFKLIGDTPIDTFLMEMLEAPHQMT
notes: domain: Gal4 DBD;mature
- binding result [4]: binds

B6: GST-RAC3-RID fusion (other)
chain: LESKGHKKLLQLLTCSSDDRGHSSLTNSPLDSSCKESSVSVTSPSGVSSSTSGGVSSTSNMHGSLLQEKHRILHKLLQNGNSPAEVAKITAQATGKDTSSITSCGDGNVVKQEQLSPKKKENNALLRYLLDRDDPSDALS
notes: Purified from DH5α cells, separated by SDS-PAGE, blotted, denatured and renatured on the filter; also called GST-RID fusion; not shown: glutathione S-transferase (GST) module
- binding result [5]: binds

B7: SNF1 (other, UniProt P06782 1-633, looked up)
chain: MSSNNNTNTAPANANSSHHHHHHHHHHHHHGHGGSNSTLNNPKSSLADGAHIGNYQIVKTLGEGSFGKVKLAYHTTTGQKVALKIINKKVLAKSDMQGRIEREISYLRLLRHPHIIKLYDVIKSKDEIIMVIEYAGNELFDYIVQRDKMSEQEARRFFQQIISAVEYCHRHKIVHRDLKPENLLLDEHLNVKIADFGLSNIMTDGNFLKTSCGSPNYAAPEVISGKLYAGPEVDVWSCGVILYVMLCRRLPFDDESIPVLFKNISNGVYTLPKFLSPGAAGLIKRMLIVNPLNRISIHEIMQDDWFKVDLPEYLLPPDLKPHPEEENENNDSKKDGSSPDNDEIDDNLVNILSSTMGYEKDEIYESLESSEDTPAFNEIRDAYMLIKENKSLIKDMKANKSVSDELDTFLSQSPPTFQQQSKSHQKSQVDHETAKQHARRMASAITQQRTYHQSPFMDQYKEEDSTVSILPTSLPQIHRANMLAQGSPAASKISPLVTKKSKTRWHFGIRSRSYPLDVMGEIYIALKNLGAEWAKPSEEDLWTIKLRWKYDIGNKTNTNEKIPDLMKMVIQLFQIETNNYLVDFKFDGWESSYGDDTTVSNISEDEMSTFSAYPFLHLTTKLIMELAVNSQSN
- binding result [6]: no binding

Binder: B8
- binding result [7]: binds
